This passage reports activity results from patent publication US20140256789.

Series [1] has as its target p53 (wild-type, endogenous) (Homo sapiens) (UniProt P04637). Briefly: cell_activity. The note with it: fold decrease in luciferase on p53 siRNA knockdown in HCT116.
For series [2], the system named is p53 (wild-type, transfected). The experiment in a line: cell_activity. The settings on record: luciferase reporter in H1299 with wtp53, fold above pGL3-basic. (In general: Reporter assays use an easily measured gene product as a stand-in for the process of interest.)

Bounds are passed on as bounds.

Sequence of p53 (wild-type, endogenous) (Homo sapiens) (P04637 whole entry): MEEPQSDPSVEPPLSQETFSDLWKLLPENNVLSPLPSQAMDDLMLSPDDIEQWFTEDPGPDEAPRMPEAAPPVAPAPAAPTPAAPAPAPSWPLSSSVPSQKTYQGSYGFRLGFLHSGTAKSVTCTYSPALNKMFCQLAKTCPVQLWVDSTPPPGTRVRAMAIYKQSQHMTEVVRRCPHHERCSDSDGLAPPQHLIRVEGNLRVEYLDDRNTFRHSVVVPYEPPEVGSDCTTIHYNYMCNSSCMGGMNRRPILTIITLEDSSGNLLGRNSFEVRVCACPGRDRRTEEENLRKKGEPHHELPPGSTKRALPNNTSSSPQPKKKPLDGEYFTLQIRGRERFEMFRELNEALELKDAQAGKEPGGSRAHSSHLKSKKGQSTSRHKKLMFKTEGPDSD

“EST-Prom-luc (about 2 kb miR-34a promoter region with p53BS)”: the activity in series [1] was more than 3 fold; in series [2], 20 fold.
